The results in this text go back to paper PMC7321126, “Recombinant Expression and Stapling of a Novel Long-Acting GLP-1R Peptide Agonist” (Molecules, 2020).

Test [1] concerns the target human GLP-1R on HEK293-GLP-1R-CRE cells (human) (UniProt P43220).
For test [2], the target named is GLP-1R on cAMP Hunter CHO cells (UniProt P43220).
Sequence of GLP-1R on cAMP Hunter CHO cells (P43220 24-463): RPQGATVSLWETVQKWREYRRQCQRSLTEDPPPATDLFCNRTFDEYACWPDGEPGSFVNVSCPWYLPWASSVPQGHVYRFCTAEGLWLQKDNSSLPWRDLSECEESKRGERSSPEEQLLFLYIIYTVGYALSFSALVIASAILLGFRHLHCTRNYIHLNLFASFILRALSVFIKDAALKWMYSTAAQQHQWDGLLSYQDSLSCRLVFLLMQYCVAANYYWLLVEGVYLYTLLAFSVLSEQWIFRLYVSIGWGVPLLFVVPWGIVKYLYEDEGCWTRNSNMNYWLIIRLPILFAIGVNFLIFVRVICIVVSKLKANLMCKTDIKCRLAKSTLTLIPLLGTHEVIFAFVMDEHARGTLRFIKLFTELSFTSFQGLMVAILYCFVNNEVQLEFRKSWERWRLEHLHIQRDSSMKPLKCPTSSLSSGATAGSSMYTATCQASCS

Sequence of human GLP-1R on HEK293-GLP-1R-CRE cells (human) (P43220 24-463): as above

As to Semaglutide (peptide), in test [1], the EC50, CRE luciferase reporter assay in HEK293-GLP-1R-CRE cells was 0.024 nM. In test [2], the EC50, intracellular cAMP (HTRF) assay in cAMP Hunter CHO cells expressing GLP-1R came out at 0.21 nM.
For “exenatide (Ex-4) (from UniProt P26349 48-87) (peptide)”, the EC50, CRE luciferase reporter assay in HEK293-GLP-1R-CRE cells in test [1] was found to be 0.037 nM. Besides, in test [2], the EC50, intracellular cAMP (HTRF) assay in cAMP Hunter CHO cells expressing GLP-1R amounted to 0.111 nM.
